Experimental data reported in patent publication US20050276799A1 (PDL BIOPHARMA, published 2005).
Residue numbers refer to the chain shown, from its start. In names and notes the source's numbering stands. Where two headings read alike, the source gives them in different places.

Legend:
[1] = biological target: T1, recombinant, GPI-linked human FcRn on cell line NS0 HuFcRn (memb), clone 7-3 (human, UniProt P55899 24-297; P61769 21-119); test: IC50 of wild-type / IC50 of this antibody, same assay
T1 construct: Expressed from pDL208 on the surface of NS0 cells; also called human neonatal Fc receptor; not shown: human c-myc decapeptide flanked by linker peptides, then GPI linkage signal of human decay accelerating factor (vector p)

[2] = biological target: T1, recombinant, GPI-linked human FcRn on …; test: competition FACS vs biotinylated human IgG on NS0 cells expressing human FcRn, FBB pH 6.0
[3] = biological target: T1, recombinant, GPI-linked human FcRn on …; test: IC50 of wild-type / IC50 of this antibody, same assay; remark: listed apart in the source
[4] = biological target: T2, recombinant, GPI-linked rhesus FcRn on cell line NS0 RhFcRn, clone R-3 (rhesus, UniProt H9Z6D2 24-297; Q6V7J5 21-119, GPI-linked); test: as above
T2 construct: Expressed from pDL410 on the surface of NS0 cells; not shown: human c-myc decapeptide flanked by linker peptides, then GPI linkage signal of human decay accelerating factor (vector p)

[5] = biological target: T1, recombinant, GPI-linked human FcRn on …; test: as above; remark: listed apart in the source
[6] = biological target: T1, recombinant, GPI-linked human FcRn on …; test: competition FACS vs biotinylated OST577-IgG2M3 on NS0 cells expressing human FcRn, FBB pH 6.0
[7] = biological target: T1, recombinant, GPI-linked human FcRn on …; test: competition FACS vs biotinylated HuEP5C7-IgG2M3 on NS0 cells expressing human FcRn, FBB pH 6.0
[8] = biological target: T1, recombinant, GPI-linked human FcRn on …; test: IC50 of wild-type / IC50 of this antibody, same assay; remark: listed apart in the source
[9] = biological target: T2, recombinant, GPI-linked rhesus FcRn on …; test: as above; remark: listed apart in the source
[10] = biological target: T1, recombinant, GPI-linked human FcRn on …; test: as above; remark: listed apart in the source
[11] = biological target: T1, recombinant, GPI-linked human FcRn on …; test: competition FACS vs biotinylated HuEP5C7-IgG2M3 on NS0 cells expressing human FcRn, FSB pH 6.0
[12] = biological target: T1, recombinant, GPI-linked human FcRn on …; test: competition FACS vs biotinylated OST577-IgG1 on NS0 cells expressing human FcRn, FBB pH 6.0
[13] = biological target: T1, recombinant, GPI-linked human FcRn on …; test: IC50 of wild-type / IC50 of this antibody, same assay; remark: listed apart in the source
[14] = biological target: T2, recombinant, GPI-linked rhesus FcRn on …; test: as above; remark: listed apart in the source
[15] = biological target: T1, recombinant, GPI-linked human FcRn on …; test: competition FACS vs biotinylated OST577-IgG1 on NS0 cells expressing human FcRn, FBB pH 6.0; remark: listed apart in the source
[16] = biological target: T2, recombinant, GPI-linked rhesus FcRn on …; test: competition FACS vs biotinylated OST577-IgG1 on NS0 cells expressing rhesus FcRn, FBB pH 6.0
[17] = biological target: T1, recombinant, GPI-linked human FcRn on …; test: IC50 of wild-type / IC50 of this antibody, same assay; remark: listed apart in the source
[18] = biological target: T2, recombinant, GPI-linked rhesus FcRn on …; test: competition FACS vs biotinylated OST577-IgG2M3 on NS0 cells expressing rhesus FcRn, FBB pH 6.0

B1: Dac-IgG1 wild-type (daclizumab) (antibody)
heavy: not shown
light: DIQMTQSPSTLSASVGDRVTITCSASSSISYMHWYQQKPGKAPKLLIYTTSNLASGVPARFSGSGSGTEFTLTISSLQPDDFATYYCHQRSTYPLTFGQGTKVEVKRTVAAPSVFIFPPSDEQLKSGTASVVCLLNNFYPREAKVQWKVDNALQSGNSQESVTEQDSKDSTYSLSSTLTLSKADYEKHKVYACEVTHQGLSSPVTKSFNRGEC
notes: Humanized anti-CD25; also called Dac-IgG1 WT
**Q.** For B1, which “Relative Binding” value [1] is on record?
**A.** Its value is 1 ratio.

**Q.** What about the IC50 [2] of the same binder?
**A.** Its IC50 is 20.4 µg/mL.

B2: Dac-IgG1 T250Q/M428L (antibody)
heavy: not shown
light: B1 light
notes: also called T250Q/M428L daclizumab
**Q.** How did the “Relative Binding” value [1] turn out when B2 was run?
**A.** The value was 33 ratio.

**Q.** And the IC50 [2]?
**A.** Its IC50 is 0.626 µg/mL.

B3: Hu1D10-IgG4 wild-type (antibody)
heavy: not shown
light: DIQMTQSPSSLSASVGDRVTITCRASENIYSYLAWYQQKPGKAPKLLVSNAKTLAEGVPSRFSGSGSGKQFTLTISSLQPEDFATYYCQHHYGNSYPFGQGTKLEIKRTVAAPSVFIFPPSDEQLKSGTASVVCLLNNFYPREAKVQWKVDNALQSGNSQESVTEQDSKDSTYSLSSTLTLSKADYEKHKVYACEVTHQGLSSPVTKSFNRGEC
**Q.** How did the “Relative Binding” value [3] turn out when B3 was run?
**A.** The value was 1 ratio.

**Q.** And the “Relative Binding” value [4]?
**A.** The value was 1 ratio.

B4: OST577-IgG2M3 wild-type (antibody)
heavy: QVQLVESGGGVVQPGRSLRLSCAASGFTFSRYGMHWVRQAPGKGLEWVAVISYDGSNKWYADSVKGRFTISRDNSKNTLFLQMHSLRAADTGVYFCAKDQLYFGSQSPGHYWGQGTLVTVSSASTKGPSVFPLAPCSRSTSESTAALGCLVKDYFPEPVTVSWNSGALTSGVHTFPAVLQSSGLYSLSSVVTVPSSNFGTQTYTCNVDHKPSNTKVDKTVERKCCVECPPCPAPPAAAPSVFLFPPKPKDTLMISRTPEVTCVVVDVSHEDPEVQFNWYVDGVEVHNAKTKPREEQFNSTFRVVSVLTVVHQDWLNGKEYKCKVSNKGLPAPIEKTISKTKGQPREPQVYTLPPSREEMTKNQVSLTCLVKGFYPSDIAVEWESNGQPENNYKTTPPMLDSDGSFFLYSKLTVDKSRWQQGNVFSCSVMHEALHNHYTQKSLSLSPSK
light: SYVLTQPPSVSVAPGQTARITCGGDNIGSKSVNWFQQKPGQAPVLVVYDDNERPSGISERFSGSNSGNTATLTISRVEAGDEADYYCQVWDSSSDHVVFGGGTKLTVLGQPKAAPSVTLFPPSSEELQANKATLVCLISDFYPGAVTVAWKADSSPVKAGVETTTPSKQSNNKYAASSYLSLTPEQWKSHRSYSCQVTHEGSTVEKTVAPTECS
notes: Human anti-HBV antibody, IgG2M3 (V234A, G237A) heavy, lambda-2 light
**Q.** With B4 as the binder, how does the “Relative Binding” value [5] read?
**A.** The value was 1 ratio.

**Q.** What about the IC50 [6] of the same binder?
**A.** The IC50 was 11.9 µg/mL.

**Q.** And the IC50 [7]?
**A.** The IC50 was 9.4 µg/mL.

**Q.** And the “Relative Binding” value [8]?
**A.** The value was 1 ratio.

**Q.** And the “Relative Binding” value [9]?
**A.** Its value is 1 ratio.

**Q.** And the “Relative Binding” value [10]?
**A.** Its value is 1 ratio.

**Q.** And the IC50 [11]?
**A.** Its IC50 is 10.7 µg/mL.

B5: OST577-IgG1 wild-type (antibody)
heavy: not shown
light: B4 light
notes: Human anti-HBV antibody, IgG1 heavy, lambda-2 light
**Q.** How did the IC50 [12] turn out when B5 was run?
**A.** The IC50 was 13.9 µg/mL.

**Q.** And the “Relative Binding” value [13]?
**A.** The value was 1 ratio.

**Q.** What about the “Relative Binding” value [14] of the same binder?
**A.** The value was 1 ratio.

**Q.** And the IC50 [15]?
**A.** Its IC50 is 10.3 µg/mL.

**Q.** And the IC50 [16]?
**A.** Its IC50 is 8.86 µg/mL.

**Q.** And the “Relative Binding” value [17]?
**A.** Its value is 1 ratio.

B6: OST577-IgG2M3 M428F (antibody)
heavy: B4 heavy with M429F
light: B4 light
**Q.** With B6 as the binder, how does the IC50 [7] read?
**A.** The IC50 was 2.97 µg/mL.

**Q.** And the “Relative Binding” value [8]?
**A.** The value was 3.1 ratio.

**Q.** What about the “Relative Binding” value [10] of the same binder?
**A.** Its value is 3.2 ratio.

**Q.** And the IC50 [11]?
**A.** Its IC50 is 3.4 µg/mL.

B7: OST577-IgG2M3 T250Q/M428L (antibody)
heavy: B4 heavy with T251Q, M429L
light: B4 light
**Q.** For B7, which “Relative Binding” value [5] is on record?
**A.** The value was 28 ratio.

**Q.** What about the IC50 [6] of the same binder?
**A.** Its IC50 is 0.43 µg/mL.

**Q.** What about the “Relative Binding” value [9] of the same binder?
**A.** The value was 27 ratio.

**Q.** And the IC50 [18]?
**A.** Its IC50 is 0.554 µg/mL.

B8: OST577-IgG2M3 T250E/M428F (antibody)
heavy: B4 heavy with T251E, M429F
light: B4 light
**Q.** B8 was tested. Which IC50 [7] did it give?
**A.** The IC50 was 0.639 µg/mL.

**Q.** And the “Relative Binding” value [10]?
**A.** Its value is 15 ratio.

B9: OST577-IgG1 T250Q (antibody)
heavy: not shown
light: B4 light
**Q.** Which “Relative Binding” value [14] does the source give for B9 here?
**A.** The value was 3 ratio.

**Q.** And the IC50 [15]?
**A.** Its IC50 is 3.14 µg/mL.

**Q.** What about the IC50 [16] of the same binder?
**A.** Its IC50 is 2.97 µg/mL.

**Q.** What about the “Relative Binding” value [17] of the same binder?
**A.** Its value is 3.3 ratio.

B10: OST577-IgG2M3 T250Q/M428F (antibody)
heavy: B4 heavy with T251Q, M429F
light: B4 light
**Q.** B10 was tested. Which “Relative Binding” value [5] did it give?
**A.** Its value is 8 ratio.

**Q.** And the IC50 [6]?
**A.** The IC50 was 1.5 µg/mL.

**Q.** What about the “Relative Binding” value [9] of the same binder?
**A.** The value was 8.4 ratio.

**Q.** And the IC50 [18]?
**A.** Its IC50 is 1.77 µg/mL.

B11: OST577-IgG1 T250Q/M428L (antibody)
heavy: not shown
light: B4 light
**Q.** Which “Relative Binding” value [14] does the source give for B11 here?
**A.** The value was 37 ratio.

**Q.** What about the IC50 [15] of the same binder?
**A.** The IC50 was 0.351 µg/mL.

**Q.** And the IC50 [16]?
**A.** Its IC50 is 0.236 µg/mL.

**Q.** And the “Relative Binding” value [17]?
**A.** The value was 29 ratio.

B12: OST577-IgG1 M428L (antibody)
heavy: not shown
light: B4 light
**Q.** What does the source list for B12?
**A.** Relative Binding [14]: 14 ratio; IC50 [15]: 0.896 µg/mL; IC50 [16]: 0.629 µg/mL; Relative Binding [17]: 11 ratio
